# “Also recorded” adds a separate entry of the source.
# B1: LSA: carbohydrolase derived from Lipomyces starkeyi, amino acid sequence SEQ. ID. No. 1, expressed in E. coli; hydrolyzes amylopectin, starch, glycogen and amylose (protein)
# chain: MLLINFFIAVLGVISLSPIVVARYILRRDCTTVTVLSSPESVTSSNHVELASHEMCDSTLSASLYIYNDDYDKIVTLYYLTSSGTTGSVTASYSSSLSNNWELWSLSAPAADAVEITGASYVDSDASATYATSFDIPLTTTTTSSSSASATSTSSLTTTSSVSISVSVPTGTAANWRGRAIYEIVTDRFARTDGSTTYLCDVTDRVYCGGSYEGIINMLDYIEGMGFTAIWISPIVENIPDDTGYGYAYHGYWMKDIFALNTNFGTADDLIALATELHNRGMYLMVDIVVNHFAFSGSHADVDYSEYFPYSSEDYFHSFCWITDYSNETNVEQCWLGDDTVPLVDVNTELDTVKSEYQSWVEELIANYSIDGLRIDTVKHVEMDFWAPFEEAAGIYAVGEVFDGDPSYTCPYEENLDGVLNYPVYYPVVSAFESVSGSVSSLVDMIDTLKSECTDTTLLGSFLENEDNPRFPSYTSDESLIKNAIAFTMLSDGIPIIYYGEEQGLNGGNDPYNREALWLTGYSTTSTFYKYIASLNEIRNEAIYKDDTYLTYENWVIYSDSTTIAMRKGFTGNEIITVLSNLGTSGSSYTLTLSNTGYTASSVVYEILTCTAVTVDSSGNLAVPMSSGLPKVFYEESQLVGSGICSM
# modifications: E. coli BL21(DE3)pLysS
# notes: ID; No. 1, expressed in E. coli; hydrolyzes amylopectin, starch, glycogen and amylose
# Tests used:
# Type in all cases: biochemical
# [1] = Assay for optimal pH and temperature and stability of enzyme
# Method: (§1) The reducing value of the carbohydrolase was determined by a DNS (3,5-dinitrosalicylic acid) method in combination with a copper-bicinchoninate method. That is, 100 μl of copper-bicinchoninate was added to 100 μl of an enzyme solution, and allowed to react at 80C. for 35 min, followed by being cooled for about 15 min. Absorbance was measured at 560 nm.
# The enzyme LSA was assayed for optimal pH by measuring reaction rates in the range of pH 3-9 at intervals of pH 1.0. For this purpose, 2OmM citrate phosphate buffer (pH 4.0), citrate/phosphate buffer (pH 5-6) and sodium phosphate buffer (pH 7-9) were used. After reaction at 37° C. for […], the carbohydrolase activity of the enzyme was determined by a DNS method. Also, the pH stability of the enzyme was measured after the enzyme was added to each buffer and allowed to stand for 3 hours at 22° C.
# The optimal temperature of the enzyme was determined by measuring the reaction rates of the enzyme which had been allowed to stand for 30 min at various temperatures (20-80° C., 10C. interval). […] 1% (w/v) starch was used as a substrate in determining the activity and stability of the enzyme.
# [2] = Effect of metal ions, chelating agents and denaturants on LSA enzyme activity
# Method: as §1
# Effects of EDTA, EGTA and metal ions on enzyme activity were measured. EDTA and EGTA were each used at a final concentration of 1 mM. As for metal ions, they included ZnCl2, CuS04, CaCl2 and MgCl2 and were used at a final concentration of 5 mM. The enzyme activity was also measured in the presence of dodesyl sulfate (SDS, 0.1%, 0.5%, 1%, 2%), urea (2M), acetone (0-80%) and ethanol (0-70%). For the measurement, the enzyme was allowed to react at 37° C. for 30 min with 2% starch as a substrate.
# [3] = Relative substrate specificity of LSA enzyme: amylopectin
# Method: as §1
# [4] = Relative substrate specificity of LSA enzyme: amylodextrin
# Method: as §1
# [5] = Relative substrate specificity of LSA enzyme: pullulan
# Method: as §1
# [6] = Relative substrate specificity of LSA enzyme: amylose
# Method: as §1
# [7] = TLC analysis of reaction with maltooligosaccharide series; settings: mixture of maltooligosaccharide series
# Method: FIG. 8 is a photograph of a TLC result showing the enzymatic activity of the LSA of the present invention in which starch samples (1% w/v) are analyzed, along with maltodextrin (Mn), before and after being hydrolyzed by the enzyme (lanes 1 and 2 in panel A, respectively) and maltooligosaccharide samples (1% w/v) are analyzed after purified LSA is allowed to react with a series of maltooligosaccharides including G1 (glucose) to G7 (maltoheptaose) (lanes 1 to 7 in panel B, respectively).
# (§2) Subsequently, the malto oligosaccharides were degraded into maltopentaose and lower oligosaccharides.
# [8] = Relative substrate specificity of LSA enzyme: alpha-cyclodextrin
# Method: as §1
# [9] = Activity staining on starch-containing PAGE gel; settings: 30 min at 37° C.
# Method: For sodium dodecyl sulfate-polyacrylamide gel electrophoresis (SDS-PAGE), protein samples were loaded onto 10% polyacrylamide gel in Tris-glycine buffer (pH 8.8). The polyacrylamide gel contained 1% starch in order to detect whether the protein samples could degrade starch polysaccharide. After completion of the electrophoresis, SDS was removed by washing the gel with 50 mM Tris-HCl buffer (pH 8.0) and a 20% 2-propanol solution for 1 hour. The gel was immersed in a reaction buffer (50 mM sodium acetate, 5 mM CaCl2, pH 5) at 37° C. for […] and then in an iodide solution (0.3% iodide, 3% potassium iodide) for 10 min, and washed with distilled water. The starch hydrolyzing activity was identified by the appearance of a clear zone against a brown background.
# Following IPTG induction in E. coli, the cells were harvested, and disrupted by sonication. Proteins were purified using His-tagged affinity column and analyzed by SDS-PAGE (10%) (FIG. 3, lane 1). The band for the mainly expressed protein corresponded to 73 kDa (LSA+His-tag). To examine the ability of the purified protein to degrade polysaccharides such as starch, electrophoresis was carried out using a PAGE gel containing starch. After completion of the electrophoresis, the gel was allowed to stand for 30 min at 37° C. and stained with an iodine solution. […]
# [10] = Relative substrate specificity of LSA enzyme: starch
# Method: as §1
# [11] = TLC analysis of starch hydrolysis products; settings: 2% starch
# Text: as §2
# [12] = Relative substrate specificity of LSA enzyme: dextran
# Method: as §1
# [13] = Relative substrate specificity of LSA enzyme: glycogen
# Method: as §1
molecule,measurement,setting,value
B1,optimum pH,[1],6 pH
same,pH range in which activity is 90% of its maximum,[1],5-8 pH
same,pH range in which amylase activity is kept stably,[1],5-8 pH
same,temperature of optimal activity,[1]; 1% (w/v) starch,40 °C
same,temperature range of stability,[1]; 1% (w/v) starch,20-50 °C
same,"activity after incubation, relative to stable temperatures",[1]; incubation at 60° C. for 3 hours,70%
same,effect on enzyme activity,[2]; 1 mM EDTA,inhibited
same,increase of starch degradation activity,[2]; 5 mM Ca+,about 315%
same,effect on starch degradation activity,[2]; 5 mM Cu^2+,inhibited
same,increase of starch degradation activity,[2]; 5 mM Mg^2+,~220%
same,increase in activity,[2]; 10-20% ethanol solution,1.25-1.33 fold
same,increase in activity,[2]; 10-40% acetone,1.03-1.22 fold
same,activity relative to optimal activity,[2]; 60% acetone,lower than 50%
same,activity relative to optimal activity,[2]; 60% ethanol,lower than 50%
same,Relative Activity (%),[2]; Acetone 20%,122%
same,Relative Activity (%),[2]; Acetone 30%,115%
same,Relative Activity (%),[2]; CaCl2 5 mM,315%
same,Relative Activity (%),[2]; CaCl2 + EDTA 5 mM/1 mM,185%
same,Relative Activity (%),[2]; CuSO4 5 mM,20%
same,Relative Activity (%),[2]; CuSO4 + EDTA 5 mM/1 mM,12%
same,Relative Activity (%),[2]; EDTA 1 mM,46%
same,Relative Activity (%),[2]; EGTA 1 mM,105%
same,effect on enzyme activity,[2]; EGTA (1 mM; EGTA-containing solution),not inhibited; also recorded: not influenced
same,Relative Activity (%),[2]; MgCl2 5 mM,220%
same,Relative Activity (%),[2]; MgCl2 + EDTA 5 mM/1 mM,129%
same,effect on starch degradation activity,[2]; SDS,completely inhibited
same,Relative Activity (%),[2]; SDS 0.1%,66%
same,Relative Activity (%),[2]; SDS 0.5%,49%
same,Relative Activity (%),[2]; SDS 1%,24%
same,Relative Activity (%),[2]; SDS 2%,12%
same,Relative Activity (%),[2]; Urea 2M,115%
same,effect on starch degradation activity,[2]; acetone,increased
same,Relative Activity (%),"[2]; additive: None, 2% starch, 37° C., 30 min",100%
same,effect on starch degradation activity,[2]; urea,increased
same,degradation of amylopectin (in words),[3],strongly
same,Relative Activity (%),"[3]; substrate Amylopectin, relative to starch",141%
same,degradation of amylodextrin (in words),[4],weakly
same,Relative Activity (%),"[4]; substrate Amylodextrin, relative to starch",17%
same,degradation of pullulan (in words),[5],degrade; also recorded: weakly
same,Relative Activity (%),"[5]; substrate Pullulan, relative to starch",3%
same,degradation of amylose (in words),[6],weakly
same,Relative Activity (%),"[6]; substrate Amylose, relative to starch",41%
same,degradation products of G6,[7],G2+G4 or into G3+G3
same,hydrolysis of G2,[7],did not hydrolyze
same,hydrolysis of G3,[7],did not hydrolyze
same,degradation of a-cyclodextrin (in words),[8],degrade; also recorded: weakly
same,Relative Activity (%),"[8]; substrate alpha-CD, relative to starch",4%
same,"starch degradation on gel, iodine staining",[9],clear zone
same,degradation of starch (soluble) (in words),[10],strongly
same,Relative Activity (%),[10]; substrate Starch,100%
same,"hydrolysis products, early stage of reaction",[11],oligosaccharides larger than maltopentaose were produced
same,"hydrolysis products, final",[11],maltotriose and maltotetraose were predominant
same,degradation of dextran (in words),[12],degrade; also recorded: weakly
same,Relative Activity (%),"[12]; substrate Dextran, relative to starch",4%
same,degradation of glycogen (in words),[13],strongly
same,Relative Activity (%),"[13]; substrate Glycogen, relative to starch",80%
